Data: patent US20140093973A1 (BOARD OF REGENTS OF THE UNIVERSITY OF OKLAHOMA, published 2014)
Ends that are not written are not given here.

Tests used:
soluble HLA-B*4402 [1] = target: T1, soluble HLA-B*4402 (human); assay: FP screen of 53 sHLA
T1 construct: Member of the panel of 53 single-specificity sHLA

soluble HLA-B*1801 = target: T2, soluble HLA-B*1801 (human); assay: FP screen of 53 sHLA with FITC-peptide
T2 construct: Member of the panel of 53 single-specificity sHLA

soluble HLA-B*4002 = target: T3, soluble HLA-B*4002 (human); assay: FP screen of 53 sHLA with FITC-peptide
T3 construct: Member of the panel of 53 single-specificity sHLA

soluble HLA-B*4001 [2] = target: T4, soluble HLA-B*4001 (human); assay: FP screen of 53 sHLA with FITC-peptide
T4 construct: Member of the panel of 53 single-specificity sHLA

soluble HLA-B*4001 [3] = target: T4, soluble HLA-B*4001; assay: FP screen of 53 sHLA
[4] = target: soluble HLA-A*0201 (sHLA-A*0201) (human); assay: FP screen
[5] = target: T5, soluble HLA-B*2705 (sHLA-B*2705) (human); assay: FP screen
T5 construct: Recombinant soluble class I with endogenous peptides, made as m1; negative control

[6] = target: T6, soluble HLA-A*6801 (sHLA-A*6801) (human); assay: FP screen
T6 construct: Recombinant soluble class I with endogenous peptides, made as m1

soluble HLA-A*2902 = target: T7, soluble HLA-A*2902 (human); assay: FP screen
T7 construct: Member of the panel of 53 single-specificity sHLA

soluble HLA-A*3601 = target: T8, soluble HLA-A*3601 (human); assay: FP screen
T8 construct: Member of the panel of 53 single-specificity sHLA

soluble HLA-A*3402 = target: T9, soluble HLA-A*3402 (human); assay: FP screen
T9 construct: Member of the panel of 53 single-specificity sHLA

soluble HLA-A*2601 = target: T10, soluble HLA-A*2601 (human); assay: FP screen
T10 construct: Member of the panel of 53 single-specificity sHLA

soluble HLA-B*1302 = target: T11, soluble HLA-B*1302 (human); assay: FP screen
T11 construct: Member of the panel of 53 single-specificity sHLA

soluble HLA-B*1512 = target: T12, soluble HLA-B*1512 (human); assay: FP screen
T12 construct: Member of the panel of 53 single-specificity sHLA

soluble HLA-A*0301 = target: T13, soluble HLA-A*0301 (human); assay: FP screen
T13 construct: Member of the panel of 53 single-specificity sHLA

[7] = target: T14, soluble HLA-A*6901 (sHLA-A*6901) (human); assay: FP screen
T14 construct: Recombinant soluble class I with endogenous peptides, made as m1

soluble HLA-A*2402 = target: T15, soluble HLA-A*2402 (human); assay: FP screen
T15 construct: Member of the panel of 53 single-specificity sHLA

soluble HLA-A*2301 = target: T16, soluble HLA-A*2301 (human); assay: FP screen
T16 construct: Member of the panel of 53 single-specificity sHLA

soluble HLA-A*6601 = target: T17, soluble HLA-A*6601 (human); assay: FP screen
T17 construct: Member of the panel of 53 single-specificity sHLA

soluble HLA-B*4501 = target: T18, soluble HLA-B*4501 (human); assay: FP screen
T18 construct: Member of the panel of 53 single-specificity sHLA

soluble HLA-A*3002 = target: T19, soluble HLA-A*3002 (human); assay: FP screen
T19 construct: Member of the panel of 53 single-specificity sHLA

soluble HLA-B*4402 [8] = target: T1, soluble HLA-B*4402; assay: FP screen
[9] = target: T20, soluble HLA-A*4301 (sHLA-A*4301) (human); assay: FP screen
T20 construct: Recombinant soluble class I with endogenous peptides, made as m1

[10] = target: T21, soluble HLA-A*1102 (sHLA-A*1102) (human, UniProt P04439 25-308; P61769 21-119); assay: FP screen
T21 construct: Recombinant soluble class I with endogenous peptides, made as m1

soluble HLA-B*1501 = target: T22, soluble HLA-B*1501 (human); assay: FP screen of 53 sHLA with FITC-peptide
T22 construct: Member of the panel of 53 single-specificity sHLA

AELLAAKF (also: FITC-labeled, position not given here) [AELLAAKF, FITC-labeled B44-like peptide]
binding result (soluble HLA-B*4402 [1]): no binding (tested: 2 nM peptide, 100 ug/ml activated sHLA) | binding result (soluble HLA-B*1801): binds | binding result (soluble HLA-B*4002): binds | binding result (soluble HLA-B*4001 [2]): binds

EEKLIVKQY (also: FITC-labeled, position not given here) [EEKLIVKQY, FITC-labeled B44-like peptide]
binding result (soluble HLA-B*4001 [3]): binds | binding result [4]: no binding (tested: 100 ug/ml sHLA) | binding result [5]: no binding (tested: 100 ug/ml sHLA) | binding result [6]: no binding (tested: 100 ug/ml sHLA) | binding result (soluble HLA-A*2902): no binding (tested: 100 ug/ml sHLA) | binding result (soluble HLA-A*3601): no binding (tested: 100 ug/ml sHLA) | binding result (soluble HLA-A*3402): no binding (tested: 100 ug/ml sHLA) | binding result (soluble HLA-A*2601): no binding (tested: 100 ug/ml sHLA) | binding result (soluble HLA-B*1302): no binding (tested: 100 ug/ml sHLA) | binding result (soluble HLA-B*1512): no binding (tested: 100 ug/ml sHLA) | binding result (soluble HLA-A*0301): no binding (tested: 100 ug/ml sHLA) | binding result [7]: no binding (tested: 100 ug/ml sHLA) | binding result (soluble HLA-A*2402): no binding (tested: 100 ug/ml sHLA) | binding result (soluble HLA-A*2301): no binding (tested: 100 ug/ml sHLA) | binding result (soluble HLA-A*6601): no binding (tested: 100 ug/ml sHLA) | binding result (soluble HLA-B*4501): no binding (tested: 100 ug/ml sHLA) | binding result (soluble HLA-A*3002): no binding (tested: 100 ug/ml sHLA) | binding result (soluble HLA-B*4402 [8]): no binding (tested: 100 ug/ml sHLA) | binding result [9]: no binding (tested: 100 ug/ml sHLA) | binding result [10]: no binding (tested: 100 ug/ml sHLA) | binding result (soluble HLA-B*1501): binds | binding result (soluble HLA-B*1801): binds
